Key:
[1] = target: SADS-CoV spike glycoprotein ectodomain (residues 1-1068) (swine acute diarrhea syndrome coronavirus (SADS-CoV)); assay: cryo-EM structure
[2] = target: HKU2 spike glycoprotein ectodomain (residues 1-1066) (Rhinolophus bat coronavirus HKU2); assay: cryo-EM structure

Substance	stoichiometry N [1]	stoichiometry N [2]
SADS-CoV spike glycoprotein ectodomain (residues 1-1068) (domain or fragment)	3	
HKU2 spike glycoprotein ectodomain (residues 1-1066) (domain or fragment)		3
